# System: Escherichia coli TOP10
# Experiment: shrunken log2 fold change of peptide-encoding DNA abundance (4.5 h post-induction vs induction); higher = less antimicrobial activity (less host growth inhibition)
# Conditions: time post-induction: 4.5 h; library: site-saturation at positions 5, 18, 19, 20
# 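Also: peptides expressed intracellularly from a pBAD plasmid library in pooled LB shake-flask culture, induced with 0.3% L-arabinose, DNA abundance read by NGS, three biological replicates, DESeq2 with apeglm shrinkage.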
row,Sequence,shrunken log2 fold change
1,RRIRLRPPRLPRPRPRPDVGPRP,-0.0266
2,RRIRRRPPRLPRPRPRPEGVPRP,0.874
3,RRIRVRPPRLPRPRPRPIQGPRP,0.0292
4,RRIRQRPPRLPRPRPRPVALPRP,-0.0318
5,RRIRNRPPRLPRPRPRPYPVPRP,0.00968
6,RRIRMRPPRLPRPRPRPFQMPRP,-0.323
7,RRIRYRPPRLPRPRPRPHMDPRP,-1.85
8,RRIRLRPPRLPRPRPRPAPTPRP,0.28
9,RRIRERPPRLPRPRPRPKTRPRP,-0.0349
10,RRIRSRPPRLPRPRPRPNGFPRP,-0.0748
11,RRIRNRPPRLPRPRPRPSPSPRP,-0.0323
12,RRIRERPPRLPRPRPRPLDHPRP,-0.155
13,RRIRVRPPRLPRPRPRPPDCPRP,-0.0843
14,RRIRWRPPRLPRPRPRPGFEPRP,0.427
15,RRIRTRPPRLPRPRPRPHHLPRP,0.0331
16,RRIRMRPPRLPRPRPRPRVLPRP,1.12
17,RRIRVRPPRLPRPRPRPFHVPRP,-0.262
18,RRIRRRPPRLPRPRPRPKWCPRP,0.431
19,RRIRWRPPRLPRPRPRPRIVPRP,0.0526
20,RRIRSRPPRLPRPRPRPPCPPRP,0.319
21,RRIRKRPPRLPRPRPRPQHGPRP,0.205
22,RRIRTRPPRLPRPRPRPWPQPRP,0.323
23,RRIRTRPPRLPRPRPRPSVVPRP,-0.384
24,RRIRWRPPRLPRPRPRPASSPRP,-0.0381
25,RRIRDRPPRLPRPRPRPDHFPRP,-0.0133

row,Sequence,shrunken log2 fold change
1,RRIRVRPPRLPRPRPRPCYLPRP,-0.56
2,RRIRERPPRLPRPRPRPVYWPRP,0.0789
3,RRIRERPPRLPRPRPRPMWGPRP,-0.016
4,RRIRQRPPRLPRPRPRPNFAPRP,0.24
5,RRIRMRPPRLPRPRPRPIFPPRP,0.229
6,RRIRARPPRLPRPRPRPSTHPRP,-0.0532
7,RRIRKRPPRLPRPRPRPARMPRP,0.905
8,RRIRFRPPRLPRPRPRPPIEPRP,-0.201
9,RRIRKRPPRLPRPRPRPNIIPRP,0.00713
10,RRIRERPPRLPRPRPRPKGGPRP,-0.0194
11,RRIRMRPPRLPRPRPRPKQMPRP,1.25
12,RRIRARPPRLPRPRPRPGIRPRP,0.475
13,RRIRMRPPRLPRPRPRPHDSPRP,-0.0393
14,RRIRWRPPRLPRPRPRPSSNPRP,-0.0759
15,RRIRDRPPRLPRPRPRPKAPPRP,0.341
16,RRIRSRPPRLPRPRPRPIAPPRP,-0.0336
17,RRIRLRPPRLPRPRPRPPGNPRP,0.303
18,RRIRDRPPRLPRPRPRPTWKPRP,0.0856
19,RRIRQRPPRLPRPRPRPKLAPRP,-0.0518
20,RRIRFRPPRLPRPRPRPALGPRP,0.423
21,RRIRMRPPRLPRPRPRPQKNPRP,0.628
22,RRIRHRPPRLPRPRPRPSSWPRP,-0.0281
23,RRIRSRPPRLPRPRPRPINRPRP,-0.225
24,RRIRNRPPRLPRPRPRPCKQPRP,-0.0218
25,RRIRYRPPRLPRPRPRPLEKPRP,0.0601

row,Sequence,shrunken log2 fold change
1,RRIRNRPPRLPRPRPRPTVKPRP,-0.00906
2,RRIRMRPPRLPRPRPRPRKVPRP,0.767
3,RRIRWRPPRLPRPRPRPDMYPRP,-0.389
4,RRIRYRPPRLPRPRPRPGCVPRP,-0.202
5,RRIRYRPPRLPRPRPRPYQAPRP,-0.0933
6,RRIRCRPPRLPRPRPRPLHMPRP,-0.295
7,RRIRCRPPRLPRPRPRPESEPRP,0.237
8,RRIRERPPRLPRPRPRPDVFPRP,-0.0359
9,RRIRARPPRLPRPRPRPWSCPRP,-0.045
10,RRIRVRPPRLPRPRPRPSKCPRP,-0.0461
11,RRIRARPPRLPRPRPRPYCWPRP,-0.258
12,RRIRTRPPRLPRPRPRPESQPRP,-0.0324
13,RRIRGRPPRLPRPRPRPHSHPRP,0.303
14,RRIRKRPPRLPRPRPRPGNVPRP,0.00843
15,RRIRDRPPRLPRPRPRPISTPRP,-0.146
16,RRIRCRPPRLPRPRPRPYEHPRP,-0.554
17,RRIRTRPPRLPRPRPRPRFVPRP,-0.279
18,RRIRFRPPRLPRPRPRPECMPRP,0.0416
19,RRIRERPPRLPRPRPRPNDCPRP,-0.0231
20,RRIRDRPPRLPRPRPRPNHSPRP,-0.33
21,RRIRKRPPRLPRPRPRPREAPRP,1.44
22,RRIRLRPPRLPRPRPRPIDYPRP,-0.0867
23,RRIRWRPPRLPRPRPRPHFVPRP,-0.438
24,RRIRSRPPRLPRPRPRPDCSPRP,0.0664
25,RRIRYRPPRLPRPRPRPRSLPRP,-0.0256

row,Sequence,shrunken log2 fold change
1,RRIRTRPPRLPRPRPRPIKDPRP,-0.104
2,RRIRRRPPRLPRPRPRPGKFPRP,0.284
3,RRIRLRPPRLPRPRPRPNMEPRP,0.116
4,RRIRFRPPRLPRPRPRPQIWPRP,-0.0457
5,RRIRFRPPRLPRPRPRPHEPPRP,-0.164
6,RRIRTRPPRLPRPRPRPSYNPRP,-0.591
7,RRIRVRPPRLPRPRPRPRDHPRP,0.172
8,RRIRFRPPRLPRPRPRPQQQPRP,0.0282
9,RRIRSRPPRLPRPRPRPQPGPRP,0.287
10,RRIRRRPPRLPRPRPRPNPWPRP,0.231
11,RRIRARPPRLPRPRPRPSLDPRP,0.735
12,RRIRARPPRLPRPRPRPVLLPRP,0.122
13,RRIRSRPPRLPRPRPRPHHPPRP,-0.369
14,RRIRGRPPRLPRPRPRPDSSPRP,0.217
15,RRIRVRPPRLPRPRPRPLHIPRP,-0.528
16,RRIRTRPPRLPRPRPRPVVRPRP,-0.00389
17,RRIRFRPPRLPRPRPRPVLVPRP,-0.288
18,RRIRYRPPRLPRPRPRPELQPRP,0.0344
19,RRIRHRPPRLPRPRPRPSQAPRP,-0.142
20,RRIRRRPPRLPRPRPRPSAAPRP,1.13
21,RRIRSRPPRLPRPRPRPQTWPRP,-0.164
22,RRIRIRPPRLPRPRPRPESCPRP,-0.0796
23,RRIRDRPPRLPRPRPRPRSHPRP,-0.0765
24,RRIRLRPPRLPRPRPRPRVEPRP,0.174
25,RRIRERPPRLPRPRPRPWHYPRP,-0.067

row,Sequence,shrunken log2 fold change
1,RRIRRRPPRLPRPRPRPDYIPRP,-0.339
2,RRIRWRPPRLPRPRPRPRFQPRP,0.199
3,RRIRARPPRLPRPRPRPHPDPRP,0.395
4,RRIRKRPPRLPRPRPRPLQEPRP,0.0634
5,RRIRPRPPRLPRPRPRPSAPPRP,0.017
6,RRIRIRPPRLPRPRPRPPKEPRP,-0.0998
7,RRIRWRPPRLPRPRPRPRNIPRP,0.00817
8,RRIRFRPPRLPRPRPRPVHQPRP,0.124
9,RRIRYRPPRLPRPRPRPRFGPRP,0.345
10,RRIRERPPRLPRPRPRPARAPRP,0.522
11,RRIRERPPRLPRPRPRPNCHPRP,-0.336
12,RRIRYRPPRLPRPRPRPYHWPRP,-0.115
13,RRIRRRPPRLPRPRPRPQHNPRP,0.0256
14,RRIRARPPRLPRPRPRPWVNPRP,-0.246
15,RRIRQRPPRLPRPRPRPGTCPRP,-0.266
16,RRIRMRPPRLPRPRPRPKVKPRP,0.614
17,RRIRDRPPRLPRPRPRPQNWPRP,-0.00585
18,RRIRARPPRLPRPRPRPWLRPRP,0.228
19,RRIRHRPPRLPRPRPRPLIGPRP,-0.155
20,RRIRMRPPRLPRPRPRPPHDPRP,1.47
21,RRIRGRPPRLPRPRPRPDWKPRP,0.000125
22,RRIRKRPPRLPRPRPRPIRHPRP,0.132
23,RRIRDRPPRLPRPRPRPLQSPRP,-0.015
24,RRIRYRPPRLPRPRPRPMRNPRP,0.174
25,RRIRFRPPRLPRPRPRPNQCPRP,-0.511

row,Sequence,shrunken log2 fold change
1,RRIRTRPPRLPRPRPRPSIQPRP,-0.865
2,RRIRCRPPRLPRPRPRPAGQPRP,-0.109
3,RRIRCRPPRLPRPRPRPYGQPRP,-1.33
4,RRIRMRPPRLPRPRPRPDDKPRP,1.43
5,RRIRFRPPRLPRPRPRPHDSPRP,0.0531
6,RRIRTRPPRLPRPRPRPGSCPRP,0.083
7,RRIRYRPPRLPRPRPRPWVWPRP,-0.111
8,RRIRMRPPRLPRPRPRPLIMPRP,-0.0525
9,RRIRNRPPRLPRPRPRPAFPPRP,-0.138
10,RRIRPRPPRLPRPRPRPDPYPRP,0.0668
11,RRIRARPPRLPRPRPRPPRDPRP,1.04
12,RRIRARPPRLPRPRPRPYHNPRP,-1.16
13,RRIRHRPPRLPRPRPRPFDEPRP,-0.173
14,RRIRDRPPRLPRPRPRPWTYPRP,-0.834
15,RRIRFRPPRLPRPRPRPRHCPRP,-0.239
16,RRIRNRPPRLPRPRPRPWIWPRP,-0.151
17,RRIRRRPPRLPRPRPRPGQQPRP,0.119
18,RRIRIRPPRLPRPRPRPQMHPRP,-0.494
19,RRIRARPPRLPRPRPRPGLHPRP,0.275
20,RRIRFRPPRLPRPRPRPTYHPRP,-0.428
21,RRIRMRPPRLPRPRPRPNLWPRP,0.119
22,RRIRLRPPRLPRPRPRPFLSPRP,-0.643
23,RRIRLRPPRLPRPRPRPYPKPRP,-0.0574
24,RRIRMRPPRLPRPRPRPFTPPRP,-0.397
25,RRIRTRPPRLPRPRPRPWITPRP,0.0633
